Data published in patent publication US20230374072A1 (priority 2020, published 2023).

System: TNF expression in HUVEC cell culture

Gly-Asp-Cys-Pro-Pro-Trp-Cys-Gly-Ala-Arg-Cys-(XXX)-Cys [SEQ ID NO:1 scaffolding protein]
toxic activity (activity of the toxin): does not present any type of toxic activity
